Results taken from the DeepSol protein solubility set.

Test: soluble on expression in E. coli; label from the status in PepcDB or PDB records

| Sequence | soluble on expression in E. coli |
| --- | --- |
| MGSDKIHHHHHHMEYIVRTHKIGIYEKALPKNLSWQDRLSIAKACGFDFVEISIDETDERLARLDWSKAERIELVTAIISTGITIPSMCLSGHRRFPFGSRDEATRQKAFEIMKKAIQLAVDLGIRTIQLAGYDVYYEEQDEGTIQRFQQGLEWAVKLAASHQVTIAVEIMDTQFISSISRWKKWDNIIRSPWFTVYPDLGNLSAWNENVSEELKLGIDKISAIHLKDTYKVTTTSKGQFRDVPFGAGCVDFVQCFRILSELNYRGAFLVEMWTEKAEEPITEIINARRWIEQKMKEGGFQC | not soluble |
| KELKIILLTDMHVGSLLQKDFVDYIVEEVNQKEVDMVLIGGDLVDESIEKVKSFLLPLNNLKSTHGTFYVPGNHEYYHGIEPILSFLDTLNLTILGNECVHLGGINLCGVYDYFARKRQNFAPDIDKALKKRNESKPTILLAHQPKQIRSLKESHSVDLVLSGHTHAGQIFPFSLLVKLAQTYLHGLYKHSP | not soluble |
| SGLRDWLRTVCCCCGCECLEERALPEKEPLVSDNNPYSSFGATLVRDDEKNLWSMPHDVSHTEADDDRTLYNLIVIRNQQAKDSEEWQKLNYDIHTLRQVRREVRNRWKCILEDLGFQKEADSLLSVTKLSTISDSKNTRKAREMLLKLAEETNIFPTSWELSERYLFVVDRLIALDAAEEFFKLARRTYPKKPGVPCLADGQKELHYLPFPSP | soluble |
| MRERRYSSTSPERLAAALFDVAAESGLEGASVREVAKRAGVSIGAVQHHFSTKDEMFAFALRTLVDKLLARLSEVERGGDPARALFAAMSQLLPLDEARSREAHVMAAFAVRAATSPSLAEIRRKTLFTIRTGLSAVLIGIGTPEAETRAALLLATVDGLALDAIGSPALYPPEYLEHALDIQIGMILQGADVVPSSSIELAS | soluble |
| MSDDEIGDGARAFNQLIQALSLSIETETAVRTFTEMLVSELDVHQLTEQALALLLQHTGADGGAILIEVDGEIRVAASQGIGSAHTLANNDRVRSALRTERRHRVQLPEDLVVDGMLAQFRPKEVIIDPVRHKEVVLGAVVLASGQGFSAEDRNRLDVFERGLALALHNALLYDRLQTLAALDPLEHHHHHH | not soluble |
| MGSDKIHHHHHHMYLVRNMEHVEPNIDGFKYYCSRFKNHFSFDERLTPWSCPHCKIGRLIAKEENFFCQETLILHSERKPSLQYSGFFICNCCDNKTFSTGTGKNNYYCGGDDETGDFTEMYVNEYTPQFFSPSIMLFNPPASTPQSVRDSLKRAFSICWCDIPASCNVLRVTVEILLKERWPEVPIVINGQNLNKKLNELKKIEASQPKLLEILDYFLAIKWLGNNGSHDAELEERDLAVAFKIMDKALILLYSRDDNSVSEWVRMINAAEGRPIKS | not soluble |
| MKLQQLRYIVEVVNHNLNVSSTAEGLYTSQPGISKQVRMLEDELGIQIFARSGKHLTQVTPAGQEIIRIAREVLSKVDAIKSVAGEHTWPDKGSLYVATTHTQARYALPGVIKGFIERYPRVSLHMHQGSPTQIAEAVSKGNADFAIATEALHLYDDLVMLPCYHWNRSIVVTPEHPLATKGSVSIEELAQYPLVTYTFGFTGRSELDTAFNRAGLTPRIVFTATDADVIKTYVRLGLGVGVIASMAVDPVSDPDLVKLDANGIFSHSTTKIGFRRSTFLRSYMYDFIQRFAPHLTRDVVDTAVALRSNEDIEAMFKDIKLPEK | soluble |
| MKVKNNAQLLMPREKMLKFGISALTDVELLALFLRTGTRGKDVLTLAKEMLENFGSLYGLLTSEYEQFSGVHGIGVAKFAQLKGIAELARRYYNVRMREESPLLSPEMTREFLQSQLTGEEREIFMVIFLDSQHRVITHSRLFSGTLNHVEVHPREIIREAIKINASALILAHNHPSGCAEPSKADKLITERIIKSCQFMDLRVLDHIVIGRGEYVSFAERGWI | not soluble |
| MSEAEYFSHFISNGNGKLLEIPQRRGRQDGVFIDWLSFTLHEDSLLKVSGCPLVSDAEYMFVLSKKLEEILGFGITSRCKSKGNKFYDSMFRLGSEEVDYGEVHYGGQRNTVLIELKGVGCNIANPGWELRLKQFLEDSLRPRITRVDLALDFFDGEYTPEQALLDHDNGFFDNSNMRPKSEMVGTAWRREDGSGKTFYVGRKKNSRFVRVYEKGRQLGDKESKWVRFEIQFNHGDMEIPLDILINQGSYFSGAFPICQKFKNMPNPERFDYRKKVANLTFQHKLRYAKNAVGKLINFMFDMGFDSDEIVRYLKADLGYPKGLEPEKYSLAGLKESLKFGFIHEQPDVDLEVELEELGIIKFKQSDKFDPDKRLFDPHHDVESERQYQLYLDRMYDLHANQN | not soluble |
| MAENRNRKPSDSQVDAIKVPPHSLEAEQSVIGGLLLDNERWDTVAERVVASDFYSRPHRLIFEGVKTILESGKPLDLITLSEHLERHEQLEDVGGFAYLADLAKNTPSAANINAYADIVAERAIVRGLIGVANEIADAGYDPQGRSSEDLIDMAESKVFAIAESRTSENEGPQNVDNILEKTLERIELLYKTPQDGVTGVDTGFTDLNKKTAGLQGSDLVIVAARPSMGKTTFAMNLCENAAMQQDKPVLIFSLEMPAEQLMMRMLASLSRVDQTKIRTGQLDDEDWARISSTMGILMQKKNMYIDDSSGLTPTEVRSRARRVAREHGGLSMIMVDYLQLMRVPSLTDNRTLEIAEISRSLKALAKELNVPVVALSQLNRSLEQRADKRPVNSDLRESGSIEQDADLIMFIYRDEVYHPDSPYKGTAEIIIGKQRNGPIGSVRLTFQGQHSRFDNYAGPAFDIDDE | not soluble |
| GELPEKSKLQEIYQELTRLKAAVGELPEKSKLQEIYQELTRLKAAVGELPEKSKLQEIYQELTRLKAAVGELPEKSKLQEIYQELTRLKAAVGELPEKSKLQEIYQELTELKAAVGELPEKSKLQEIYQELTQLKAAVGELPDQSKQQQIYQELTDLKTAFERLGHH | soluble |
| MKTFKAVRFQIVNEHGRIIEYELEDGVIINKEESGTGWLLEIVISNEHYETFKEYQDNEQLLDIRVVITRPANDPALFESTVKSIKNFKTTMSIVFECHIYTLRQQYAESLLEQLIDDGLSGEELKKSFNRMMQSKPKLKDEKLEE | not soluble |
| TPDWRVSLRGSLAYNRNKVISLYYTDRLYTSETALTPDYEVGKAYNMLYGLKSLGINPITGLPVFQGADGSEISPTQNPARENFIVLGHSTPPYSGTFNLNFSYRNFDLDMDFYYVFGGIKPYNYSYVRSADSANKNAIQKQLENMWFHRGDEGKIYHSPFYISPANASLQQPNTETVGKSDYLKLAMLSLRYRVPHTFLEKNCHFIKYANIAFQASNLFMITPYKESDPETGSLAGAMQPVLTINLSLTF | not soluble |
| MTDLTGILYIVATPIGNLQDITQRALETFAQVDLIAAEDTRHSGLLLSHYGIKKPFFALHDHNEQEKAHILVEKLKQGSNIALISDAGTPLISDPGFHLVRQCREAGIRVVPLPGACAAITALCASGIASDRFCFEGFLPAKSKARKDKLENIAEEDRTLIFYESTHRILDTLEDMQAVLGEERYIVLAREMTKTWETITGNTIKNLREWLLEDPNRTKGEMVLIVEGKPKSDNNDEISPQAVKALELIAEELPLKKAAAIVAELYGYKKNALYQFGLAHLEK | not soluble |
| MGHHHHHHSHALLEKEILEKVSSPFIVSLAYAFESKTHLCLVMSLMNGGDLKFHIYNVGTRGLDMSRVIFYSAQIACGMLHLHELGIVYRDMKPENVLLDDLGNCRLSDLGLAVEMKGGKPITQRAGTNGYMAPEILMEKVSYSYPVDWFAMGCSIYEMVAGRTPFKDYKEKVSKEDLKQRTLQDEVKFQHDNFTEEAKDICRLFLAKKPEQRLGSR | not soluble |
| MKRTKKEFTPYNEYHDRPFELKWATAFALGELQEGIEASDEYSKRAFERLPQQTTEEIEEYLEQSLKNNQVLEIQLNTLDDFGRVQPPIVGVFEGMSSMEYVKVGHTHILFEEIRHIKSHEFTKWSSLD | not soluble |
| MGSDKIHHHHHHMVKRMKLPESKNLSLYWEKYSFLLLEGSNSKDKEIVSKIFQTVEKLQSDFGKISSILKERREQLIKKRKPFINLKMRVKGKLLLGAGNPSSIEVGITLSRNYGLPIIPGTAVKGAFASFLFEFERDKYESLAHIFGDTEREGDLIFLDAIPVSDLKFSLDIVNPHFQPYYMKEKLPPNDWYDPVPIKYLVVSSGVFWFTVLESRSGVIGNSEKELIKQRFVEMLKAYGLGAKTSYGYGRFEEPS | not soluble |
